Consider 40 sequences from the nanobody polyreactivity screen of Harvey et al. (2022).

The data set in a line: yeast display, Sf9 membrane polyspecificity reagent, FACS + sequencing; frameworks hold sequencing errors. In outline:
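Polyreactivity labels are assigned by the sorting gate from which each nanobody was recovered. The gates were low and high (top ~1%), set on anti-HA fluorescence for expression and streptavidin fluorescence for reagent binding. Before sorting, galactose-induced (36–48 hours) yeast display cells were stained for 1 hour at 4 °C with 10% biotinylated, detergent-solubilized Sf9 membrane reagent.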
On to “QVKLVESGGGLVQAGGSLRLSCAASGRIFNWYAMGWYRQAPGKERELVAAITSGGSTNYADSVKGRFTISRDNAKNTVYLQMNSLKPEDTAVYFCNARGRFRGYRYYYWGQGTQVTVSS”, for which the “polyreactivity (PSR sort gate)” value was “high polyreactivity”.

With “QVKLVESGGGLVQAGGSLRLSCAASGRIFYYYAMGWYRPAPGKERELVAGITTGGGTNYADSVKGRFTISRDNAKNTVYLQMNSLKPEDTAVYYCATGTEGYSDDYGYWGQGTQVTVSS”, the “polyreactivity (PSR sort gate)” value is reported as “low polyreactivity”. As to “QVKLVESGGGLVQAGGSLRLSCAASGRISFYYAMGWYRQAPGKERELVATISSSGGSTHYADSVKGRFTISRDNAKNTVYLQMNSLKPEDTAVYYCARDDSERIWLEQSGYWGQGTQVTVSS”, the “polyreactivity (PSR sort gate)” value is listed as “low polyreactivity”. For “QVKLVESGGGLVQAGGSLRLSCAASGRTFIYYAMGWYRQAPGKERELVAGITYSVGSTYYADSVKGRFTISRDNAKNTVYLQMNSLKPEVTAVYYCAAKPVGTYSRPHDYWGQGTQVTVSS” the value was “low polyreactivity”. For “QVKLVESGGGLVQAGGSLRLSCAASGSIFQGYAMGWYRQAPGKERELVAAISGRGGSTYYADSVKGRFTISRDNAKNTVYLQMNSLKPEDTAVYYCNAPRYYWISFARWPASYYYWGQGTQVTVSS”, the “polyreactivity (PSR sort gate)” value is recorded as “high polyreactivity”. The same measure for “QVKLVESGGGLVQAGGSLRLSCAASGSIFTYTIGWYRQAPGKESELVAVISRSGGRTYYADSVKGRFTISRDNAKNTVYLQMNSLKPEDTAVYYCAAEYYVDYYRTSRSFTRWRYEYWGQGTQVTVSS”: “high polyreactivity”. For “QVKLVESGGGLVQAGGSLRLSCAASGSSFTNYAMGWYRQEPRKERELVAAITSVGSTYYADSVKGRFTISRDNAKNTVYLQMNSLKPEDTAVYYCNVVYRDQYNYWGQGTQVTVSS” the value was “low polyreactivity”; for “QVKLVESGGGLVQAGGSLRLSCAASGSTFHLNAMGWYRPAPGKDRELVAANSWDGSSTSYADSVKGRFTISRDNAKNTVYLQMNSLKPEDTAVYFCAADDTLDRVPTTFIDGSPGYGYWGQGTQVTVSS”, “low polyreactivity”.

Regarding “QVKLVESGGGLVQAGGSLRLSCAASGSTFSSYAMGWYRQAPGKERELVAAISSSGGTSTYADSVKGRFTISRDNAKNTVYLQMNSLKPEDTAVYYCAARQDRLLRDYRHDYWGQGTQVTVSS”, the “polyreactivity (PSR sort gate)” value is given as “high polyreactivity”. For “QVKLVESGGGLVQAGGSLRLSCAASGSTINLYDMGSYIQAPGKERELVADISRGGSTNYADSVKGRFTITRDNAKNTVYLQMNSLIPEDTAVYYCAAFYFTYDFWTYSFAEYDYWGQGTQVTVSS” the value was “high polyreactivity”; for “QVKLVESGGGLVQAGGSLRLSCAASGSTLRYYGMGWYRQAPGKERELVAAISSGGITNYADSVKGRFTISRDNAKNTVYLQMNSLKPEDTAVYYCAAYYTYTWFGYWGQGTQVTVSS”, “low polyreactivity”. As to “QVKLVESGGGLVQAGGSLRLSCAASGSTLYQYTMGWYRQAPGKERELVAGISRRGGSTYYAYSVKGRFTISRDNAKNTVYLQMNSLKPEDTAVYYCAKRPHYIAWYGYNGDYWGQGTQVTVSS”, the “polyreactivity (PSR sort gate)” value is recorded as “high polyreactivity”. For “QVKLVESGGGLVQAGGSLRLSCAASGSTMSVNAMGWYRQAPGKERELVAAIDFDGGDTYYADSVKGRFTISRDNAKNTVYFQMNSLKPEDTAVYYCAADIGGQYDYLADDYWGQGTQVTVSS”, the “polyreactivity (PSR sort gate)” value is “low polyreactivity”.

Take “QVKLVESGGGLVQAGGSLRLSCADSGFTFSSNGMCWYRPAPGKETELVAAITRRGGSTYYADSVKGRFTISRDNAKNTVYLQMNSLKPEDTAVYYCAKQLWDPKYDYWGQGTQVTVSS”: the “polyreactivity (PSR sort gate)” value is “high polyreactivity”. For “QVKLVESGGGLVQAGGSLRLSCDASGFIFSLYAMGWYRQEHGKERDLVAAISKRGGSTNYADSVKGRFTISRDNAKNTVYLQMNSLKTEDTAVYYCAKARPVFLYDHWGQGTQLTVSS”, the “polyreactivity (PSR sort gate)” value is reported as “high polyreactivity”.

On to “QVKLVESGGGLVQAGGSLRLTCAASGFTFTPNAMGWYRQAPGKEMELVAAITRSSGRTYYADSVKGRFTISRDNAKNTVYLQMNSLKPEDTAVYYCAARYASTPYARFGFWGQGTQVTVSS”, for which the “polyreactivity (PSR sort gate)” value was “high polyreactivity”. For “QVKLVESGGGLVQAGGSLRLTCAASGRIFEDYVMGWYIKAPGKERELVAGISGSGGITYYADSVKGRFTISRDNAKNTVYLQMNSLKPEDTAVYYCATAAASHKYGYWGQGTQVTVSS” the value was “low polyreactivity”; for “QVKLVESGGGLVQAGGSLSLSCAASGSTIGGYAMGWYRQAPGKERELVAAIRRSGDSTYYADSVKGRFTISRDNAKNTVYLKMNRLKPEDTAVYYCAASYLHYRYRGRDYWGQGTQVTVSS”, “low polyreactivity”. For “QVKLVESGGGLVQEGGSLRLSCAASGRIFGNYAMGWYRQAPGKERELVAAIDLSGDSTYYADSVKGRFTISRDNAKNTVYLQMNSLKPEDTAVYYCAATDWFSEYFWGQGTQVTVSS” the value was “low polyreactivity”. For the sequence “QVKLVESGRGLVHAGGSLRLSSAASANTFPPNARGCYIPAPGKERELVSAISRSGVSTYYADSVKGRFTISRDNANNTVYLQMNSLKPEDTAVYYCAAPLIYTPLKYHYWGQGTQVTVSS”, the “polyreactivity (PSR sort gate)” value is on record as “low polyreactivity”. As to “QVKLVESGRGLVQAGGSLRLSCAASGITFRSYAMGWYINATGKERELVATLSSSGGNTNYADSVKGRFTISRDNAKNTVYLQMNSLKPEDTAVYYCAAELWRYYYVVPGRYDDWGQGTQVTVSS”, the “polyreactivity (PSR sort gate)” value is “high polyreactivity”.

For the sequence “QVKLVETGGGLVQAGGSLRLSCAASGSTFGLYAMGWYRQAPGKERELVAAITWRGGRTYYADSVKGRFTISRDNAKNTVDLQMNSLKPEDTAVNFCAKGYDYYVRRYYYWGQGTQVTVSS”, the “polyreactivity (PSR sort gate)” value is reported as “high polyreactivity”. For “QVKRVESGGGLVHAGGSLRLSCPASGRTVAKYAMGGYRQEPGKARELVAAITSSGGITYYAESVQGRYTISRDNAKNIVYLQMNSLKREDTAFYYCAVKTFQVGTFRRYYYWGQGTQVTVSS” the value was “high polyreactivity”; for “QVKRVESGGVLVQAGGSLRLSCAASGFIFLLNDMGWYRQAHGKERDLVAAISRGGGSTYYADSVKGRFTISRDNAKNTVYLQMNSLKPEDTAVYYCAAKPGKTPLTGHRGPYDTGYGYCGQGTQVTVSS”, “low polyreactivity”; for “QVLIEDSGGGLVQAGGSLRLSCAASGSIFYFYAMGWYRQAPGKERELVAAISYSVGSTYYADSVKGRFTISRVNAKNTVYLQMNSLKPEDTAVDYCAADYYYGAWDGYGDEKYYYWGQGTQVTVSS”, “low polyreactivity”. For “QVLLQESGGGLVQAGGSLRLGCAASGTISPAYYMGRYHHAPGKEREFVAAITYGTNTYYADSVKGRFTISRDNAKNTVNLQMNSLKPADTAVYYCSATAGYNGAHDYWGQGTQVTVSS”, the “polyreactivity (PSR sort gate)” value was “low polyreactivity”. The same measure for “QVLLQESGGGLVQAGGSLRLSCAASGSIFLFYTMGWYRQAPVKEREFVAGITLGTTTYNADSVKGRFTISRDNVKNTLYLQMNSLKPEDTAVYYCAVAVGHYTEFWYWGQGTQVTMSS”: “high polyreactivity”. The same measure for “QVLLQESGGGLVQAVGSLRLGCAASGTISPAYDIGRNHLAPGREREFVAAMTYGTNSYYSDSVKGRFTMSRDNAKNTVFLKMTSLKTEDTAVFYFSATGGYNCAHDYWGQGTQVTVSS”: “low polyreactivity”; for “QVLLVESGGGLVQAAGSLRLSCAASGSISIGYTMGWYIQAPGKERELVATISWSGGNTYYADSVKWRFTISRDNAKNTVYLQMNRLKPEDTAVYYCAAKSSTRGDYWGQGTQVTVSS”: “low polyreactivity”; for “QVLLVESGGGLVQAGGSHRLSCAASGFIFWDYAKGGYRQAPGKERELVAAITSGGGSTYYADSVKGRFTISRDNAKNTVYLQMNSLKPEDTAVYYCNAVSWEGYDFDYWGQGTQVTVSS”: “high polyreactivity”. Turning to “QVLLVESGGGLVQAGGSLRLSCAASGRIFGYNTMGWYRQAPGKERELVASISYSGGGTYYADSVKGRFTISRDNAKNTVYLQMNSLKPEDTAVYYCNALSYGYDDAYGYWGQGTQVTVSS”, the “polyreactivity (PSR sort gate)” value is “low polyreactivity”. Take “QVLLVESGGGLVQAGGSLRLSCAASGYIIDVNAMGWYRQAPGKERELVASISSGTSTYYADSVKGRFTISRDNAKNTVYLQMNSLKPEDTAVYYCNAGVEFAASLYYSDNYDYWGQGTQVTVSS”: the “polyreactivity (PSR sort gate)” value is “low polyreactivity”. For the sequence “QVLLVESGGGLVQAGGSLRLSCGASGITFAEYAMGWYRKAPGKEREFVAAISRRGGSTYYADSVKGRFTISRDNAKNTVYIQMNTLKPEDTAVYYCNRRYDTFRFEHDYDYWGQGTQVTVSS”, the “polyreactivity (PSR sort gate)” value is recorded as “low polyreactivity”. Consider “QVLLVETGGGLVQAGGSLRLSCAASGLIFYDNMGWYRQAPGKERELVAAISSSGGSTSYADSVKGRFTISRDNAKNTVYLQMNSLKPEDTAVYYCAADSYPAYLGFVGFDYWGQGTQVTVSS”, for which the “polyreactivity (PSR sort gate)” value was “low polyreactivity”. For the sequence “QVNLVESGGGLVQAGGSLRLSCAASGLIFFYAMGWYRQAPGKERELVAGISSGGNTNYGDSVKGRFTISRDNAKNTVYLQMNSLKPEDTAVYYCNARGFTGDHQWYLWARPLYDYWGQGTQVTVSS”, the “polyreactivity (PSR sort gate)” value is on record as “high polyreactivity”. Take “QVNLVESGGGLVQAGGSLRLSCAASGRTFRFYVMGWYRQAPGKERELVAVIRYRGGSTYYADSVKGRFTISRDNAKNTVYLHMNSLKPEDTAVYYCNADFLLAGNEYDFWGQGTQVTVSS”: the “polyreactivity (PSR sort gate)” value is on record as “high polyreactivity”. For “QVPLEESGGGLVQAGGSLRLSCAASGFIIGLNAMGWYRQAPGKERELVAVITFSGGSTYYADSVKGRFTISRDNAKNTVFFQMNSLKPEDTAVYYCAARYYWYSVGYGYWGQGTQVTVSS” the value was “high polyreactivity”; for “QVPLEESGGGLVQAGGSLRLSCAASGSIFMTYSMGWYRKAPGNERELVAAISWRGGSTYYADSVKGRFTISRDNAKNTVYLQMNSMKPVDTAVYYCAADYYRYGYQGSTTEDDYWGQGTLVTVSS”, “low polyreactivity”. On to “QVPLEESRGGLVQAGGSLRLSCAASGTIFVAYDMGWYRQAPGKERELVAAIDSVGRTNYADSVKGRFTISRDNAKNTVYLQMNSLKPEDTAVYYCNADQYYSFYDPDDYWGQGTQVTVSS”, for which the “polyreactivity (PSR sort gate)” value was “low polyreactivity”. For the sequence “QVPLVESAGGLVQAGGSLRLSCAASGSTFYPYAMGWYRQAPGKERELVAAISSGGSTSYADSVKGRFTISRDNAKNTVYLQMNSLKPEDTEVYYCHASSPGAVPVYDYDYWGQGTQVTVSS”, the “polyreactivity (PSR sort gate)” value is listed as “low polyreactivity”.
